Assay results from patent US20180155451A1 (published 2018).
Residue numbers refer to the chain shown, from its start. Numbers in names are those of the source.

Key:
[1] = molecular target: T1, FcγRIa extracellular domain with C-terminal His tag (human, UniProt P12314 16-292); assay: SPR (Biacore), antibody captured via antigen peptide, FcγR as analyte; binding relative to GpH7-A5/GpH7-B3/GpL16-k0 = 100
T1 construct: extracellular domain; Soluble receptor expressed in FreeStyle293 cells, used as analyte in Biacore; also called FcgRI; CD64; not shown: His tag at the C terminus

[2] = molecular target: T1, FcγRIa extracellular domain with …; assay: SPR (Biacore); ratio of He/Con_1a (FcγRIa) to He/Con_2b (FcγRIIb) of the same antibody
[3] = molecular target: T2, FcγRIIb extracellular domain with C-terminal His tag (human, UniProt P31994 43-217); assay: SPR (Biacore), antibody captured via antigen peptide, FcγR as analyte; binding relative to GpH7-A5/GpH7-B3/GpL16-k0 = 100
T2 construct: extracellular domain; Soluble receptor expressed in FreeStyle293 cells, used as analyte in Biacore; also called FcgRIIb; CD32B; not shown: His tag at the C terminus
T2 sequence (looked up): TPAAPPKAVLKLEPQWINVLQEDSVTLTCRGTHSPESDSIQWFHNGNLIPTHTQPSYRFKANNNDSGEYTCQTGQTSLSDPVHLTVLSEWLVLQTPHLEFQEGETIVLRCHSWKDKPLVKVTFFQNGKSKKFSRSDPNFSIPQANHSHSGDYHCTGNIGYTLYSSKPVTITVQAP

FcgRIIIa F = molecular target: T3, FcgRIIIa F (human, UniProt P08637 17-208); assay: SPR (Biacore); KD of H240-Kn061/H240-Hl071/L73-k0 divided by KD of the variant
T3 construct: extracellular domain; also called FcγRIIIa F; 3aF; not shown: His tag attached to the C terminus
Description: (§1) The antibodies were assessed for the binding to each FcgR. […] The resultant value was defined as relative KD, and used as an assessment indicator.
(§2) Analysis of interaction between obj ective antibody and the FcγR was carried out using Biacore T100 (GE Healthcare), Biacore T200, Biacore A100, and Biacore 4000. HBS-EP+ (GE Healthcare) was used as the running buffer, and the measurement temperature was set to 25° C. Chips produced by immobilizing the antigen peptide by the amine coupling method to a Series S sensor Chip CM5 (GE Healthcare), chips produced by allowing preliminarily biotinylated antigen peptides to interact with and immobilize onto a Series S Sensor Chip SA (certified) (GE Healthcare), chips produced by immobilizing Protein L (ACTIGEN, BioVision) to Series S Sencor Chip CM5 (GE Healthcare), or chips produced by immobilizing Protein A/G (Thermo Scientific) to Series S Sencor Chip CM5 (GE Healthcare) were used. Antibodies of interest were captured onto these chips, and allowed to interact to each FcγR diluted with running buffer.

FcgRIIIa V = molecular target: T4, FcgRIIIa V (human, UniProt P08637 17-208); assay: as above
T4 construct: extracellular domain; also called FcγRIIIa V; not shown: His tag attached to the C terminus
Description: as §1, §2

FcgRIIb = molecular target: T5, FcgRIIb (human, UniProt P31994 43-217); assay: as above
T5 construct: extracellular domain; also called FcγRIIb; not shown: His tag attached to the C terminus
T5 sequence (looked up): T2 sequence (looked up)
Description: as §1, §2

T1 sequence (P12314 16-292): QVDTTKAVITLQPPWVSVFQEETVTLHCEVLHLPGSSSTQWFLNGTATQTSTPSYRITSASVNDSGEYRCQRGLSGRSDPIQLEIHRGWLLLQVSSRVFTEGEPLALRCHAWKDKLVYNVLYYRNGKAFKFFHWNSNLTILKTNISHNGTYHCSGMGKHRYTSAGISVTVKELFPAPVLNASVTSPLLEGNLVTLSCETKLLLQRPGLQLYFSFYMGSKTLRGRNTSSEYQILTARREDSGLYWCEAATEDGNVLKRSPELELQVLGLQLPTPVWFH
T3 sequence (P08637 17-208): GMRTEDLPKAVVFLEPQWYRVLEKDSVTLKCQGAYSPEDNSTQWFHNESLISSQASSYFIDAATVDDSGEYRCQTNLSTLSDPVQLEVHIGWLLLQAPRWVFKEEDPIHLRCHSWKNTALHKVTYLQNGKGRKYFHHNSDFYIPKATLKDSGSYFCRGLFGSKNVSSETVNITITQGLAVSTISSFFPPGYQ
T4 sequence (P08637 17-208 F176V limits assumed): as the sequence (P08637 17-208) above, with F160V counted along it

B1: GpH7-A5/GpH7-B3 variant G237_12R/GpL16-k0 (antibody, human IgG1, kappa)
heavy 1: not shown
heavy 2: not shown
light: DIVMTQSPLSLPVTPGEPASISCQASESLVHSNRNTYLHWYLQKPGQSPQLLIYKVSNRFSGVPDRFSGSGSGTDFTLKISRVEAEDVGVYYCSQNTHVPPTFGQGTKVEIERTVAAPSVFIFPPSDEQLKSGTASVVCLLNNFYPREAKVQWKVDNALQSGNSQESVTEQDSKDSTYSLSSTLTLSKADYEKHKVYACEVTHQGLSSPVTKSFNRGEC
notes: Heterodimerized anti-glypican-3 IgG1; substitution in only one H chain; also called G237R; He Ab
- He/Con_1a [1]: 65.8 % of control (GpH7-A5/GpH7-B3/GpL16-k0 = 100)
- Ia/IIb He_1a/2b [2]: 6.71

B2: GpH7-A5/GpH7-B3 variant P238_14T/GpL16-k0 (antibody, human IgG1, kappa)
heavy 1: not shown
heavy 2: not shown
light: B1 light
notes: Heterodimerized anti-glypican-3 IgG1; substitution in only one H chain; also called P238T; He Ab
- He/Con_1a [1]: 91.1 % of control (GpH7-A5/GpH7-B3/GpL16-k0 = 100)
- He/Con_2b [3]: 50.7 % of control (GpH7-A5/GpH7-B3/GpL16-k0 = 100)
- Ia/IIb He_1a/2b [2]: 1.8

B3: GpH7-A5/GpH7-B3 variant G237_14T/GpL16-k0 (antibody, human IgG1, kappa)
heavy 1: not shown
heavy 2: not shown
light: B1 light
notes: Heterodimerized anti-glypican-3 IgG1; substitution in only one H chain; also called G237T; He Ab
- He/Con_1a [1]: 82.3 % of control (GpH7-A5/GpH7-B3/GpL16-k0 = 100)
- He/Con_2b [3]: 54.8 % of control (GpH7-A5/GpH7-B3/GpL16-k0 = 100)
- Ia/IIb He_1a/2b [2]: 1.5

B4: GpH7-A5/GpH7-B3 variant P238_11K/GpL16-k0 (antibody, human IgG1, kappa)
heavy 1: not shown
heavy 2: not shown
light: B1 light
notes: Heterodimerized anti-glypican-3 IgG1; substitution in only one H chain; also called P238K; He Ab
- He/Con_1a [1]: 77.4 % of control (GpH7-A5/GpH7-B3/GpL16-k0 = 100)
- He/Con_2b [3]: 18.1 % of control (GpH7-A5/GpH7-B3/GpL16-k0 = 100)
- Ia/IIb He_1a/2b [2]: 4.27

B5: GpH7-A5/GpH7-B3 variant P238_02A/GpL16-k0 (antibody, human IgG1, kappa)
heavy 1: not shown
heavy 2: not shown
light: B1 light
notes: Heterodimerized anti-glypican-3 IgG1; substitution in only one H chain; also called P238A; He Ab
- He/Con_1a [1]: 95.2 % of control (GpH7-A5/GpH7-B3/GpL16-k0 = 100)
- He/Con_2b [3]: 57.4 % of control (GpH7-A5/GpH7-B3/GpL16-k0 = 100)
- Ia/IIb He_1a/2b [2]: 1.66

B6: GpH7-A5/GpH7-B3 variant P238_07I/GpL16-k0 (antibody, human IgG1, kappa)
heavy 1: not shown
heavy 2: not shown
light: B1 light
notes: Heterodimerized anti-glypican-3 IgG1; substitution in only one H chain; also called P238I; He Ab
- He/Con_1a [1]: 99.1 % of control (GpH7-A5/GpH7-B3/GpL16-k0 = 100)
- He/Con_2b [3]: 80 % of control (GpH7-A5/GpH7-B3/GpL16-k0 = 100)
- Ia/IIb He_1a/2b [2]: 1.24

B7: GpH7-A5/GpH7-B3 variant P238_12R/GpL16-k0 (antibody, human IgG1, kappa)
heavy 1: not shown
heavy 2: not shown
light: B1 light
notes: Heterodimerized anti-glypican-3 IgG1; substitution in only one H chain; also called P238R; He Ab
- He/Con_1a [1]: 77.3 % of control (GpH7-A5/GpH7-B3/GpL16-k0 = 100)
- He/Con_2b [3]: 51.4 % of control (GpH7-A5/GpH7-B3/GpL16-k0 = 100)
- Ia/IIb He_1a/2b [2]: 1.5

B8: GpH7-A5/GpH7-B3 variant S239_12R/GpL16-k0 (antibody, human IgG1, kappa)
heavy 1: not shown
heavy 2: not shown
light: B1 light
notes: Heterodimerized anti-glypican-3 IgG1; substitution in only one H chain; also called S239R; He Ab
- He/Con_1a [1]: 86.5 % of control (GpH7-A5/GpH7-B3/GpL16-k0 = 100)
- He/Con_2b [3]: 39.1 % of control (GpH7-A5/GpH7-B3/GpL16-k0 = 100)
- Ia/IIb He_1a/2b [2]: 2.21

B9: H240-Kn061 (Y235T)/H240-Hl071/L73-k0 (antibody, human IgG1, kappa)
heavy 1: QDQLVQSGAEVKKPGASVKVSCKASGFNIKDTYIQWVRQAPGQGLEWMGRIDPLRKQTKYREKFEGRVTITADTSTNTAYMELSSLRSEDTAVYYCVRSGREFDYWGQGTLVTVSSASTKGPSVFPLAPSSKSTSGGTAALGCLVKDYFPEPVTVSWNSGALTSGVHTFPAVLQSSGLYSLSSVVTVPSSSLGTQTYICNVNHKPSNTKVDKKVEPKSCDKTHTCPPCPAPEYTWGPSVFLFPPKPKDTLMISRTPEVTCVVVDVSDEDPEVKFNWYVDGVEVHNAKTKPREEQYNATYRVVSVLTVLHQDWLNGKEYKCKVSNKALPAPIEKTISKAKGQPREPQVCTLPPSRDELTKNQVSLWCLVKGFYPSDIAVEWESNGQPENNYKTTPPVLDSDGSFFLYSKLTVDKSRWQQGNVFSCSVMHEALHNHYTQKSLSLSP
heavy 2: QDQLVQSGAEVKKPGASVKVSCKASGFNIKDTYIQWVRQAPGQGLEWMGRIDPLRKQTKYREKFEGRVTITADTSTNTAYMELSSLRSEDTAVYYCVRSGREFDYWGQGTLVTVSSASTKGPSVFPLAPSSKSTSGGTAALGCLVKDYFPEPVTVSWNSGALTSGVHTFPAVLQSSGLYSLSSVVTVPSSSLGTQTYICNVNHKPSNTKVDKKVEPKSCDKTHTCPPCPAPELLGGPSVFLFPPKPKDTLMISRTPEVTCVVVDVSHEDPEVKFNWYVDGVEVHNAKTKPREEQYNSTYRVVSVLTVLHQDWLNGKEYKCKVSNDALPMPIEETISKAKGQPREPQVYTLPPSRCELTKNQVSLSCAVKGFYPSDIAVEWESNGQPENNYKTTPPVLDSDGSFFLVSKLTVDKSRWQQGNVFSCSVMHEALHNHYTQKSLSLSP
light: DIQMTQSPSSLSASVGDRVTITCRASQDIHKYIAWYQQKPGQAPRLLIQYTSTLQPGVPSRFSGSGSGTDYTFTISSLQPEDIATYYCLQYEQLRTFGGGTKVEIKRTVAAPSVFIFPPSDEQLKSGTASVVCLLNNFYPREAKVQWKVDNALQSGNSQESVTEQDSKDSTYSLSSTLTLSKADYEKHKVYACEVTHQGLSSPVTKSFNRGEC
- Relative KD (FcgRIIIa F): 0.9
- Relative KD (FcgRIIIa V): 1.1
- Relative KD (FcgRIIb): 0.6

B10: H240-Kn061 (Y235W)/H240-Hl071/L73-k0 (antibody, human IgG1, kappa)
heavy 1: B9 heavy 1 with T234W
heavy 2: B9 heavy 2
light: B9 light
notes: also called H240-Kn061 Y2351N
- Relative KD (FcgRIIIa F): 1.1
- Relative KD (FcgRIIIa V): 1.3
- Relative KD (FcgRIIb): 1.3
